According to patent publication US20230183352A1 (published 2023):

Assays:
[1] = target: T1, Claudin 18.2 (CLDN18.2), expressed on CHOS-CLDN 18.2 / HEK293-CLDN 18.2 / HCC827-CLDN 18.2 cells (human, UniProt P56856-2 1-261); test: FACS, CHOS-CLDN18.2 cells, 0.005 µg/ml
T1 construct: whole, on cells; The species is not repeated for the CHOS-CLDN 18.2 cells; also called claudin-18A2
Experimental: (§1) The initial concentration of the antibody was 20 μg/ml, it was diluted at 1:4, and incubated at 4° C. for 60 min.

[2] = target: T1, Claudin 18.2 (CLDN18.2), expressed on …; test: FACS, CHOS-CLDN18.2 cells, 0.078 µg/ml
Experimental: as §1

[3] = target: T1, Claudin 18.2 (CLDN18.2), expressed on …; test: FACS, CHOS-CLDN18.2 cells, 0.078 µg/ml; remark: listed apart in the source
Experimental: as §1

[4] = target: T1, Claudin 18.2 (CLDN18.2), expressed on …; test: FACS, CHOS-CLDN18.2 cells, 10 µg/ml
Experimental: The initial concentration of the antibody was 20 μg/mkit was diluted at 1:4, and incubated at 4° C. for 60 min.

[5] = target: T1, Claudin 18.2 (CLDN18.2), expressed on …; test: FACS, CHOS-CLDN18.2 cells, 0.005 µg/ml; remark: listed apart in the source
Experimental: as §1

[6] = target: T1, Claudin 18.2 (CLDN18.2), expressed on …; test: FACS, CHOS-CLDN18.2 cells, 0 µg/ml (background)
Experimental: as §1

[7] = target: T1, Claudin 18.2 (CLDN18.2), expressed on …; test: FACS, CHOS-CLDN18.2 cells, 0.078 µg/ml; remark: listed apart in the source
Experimental: as §1

[8] = target: T1, Claudin 18.2 (CLDN18.2), expressed on …; test: FACS, CHOS-CLDN18.2 cells, 1.250 µg/ml
Experimental: as §1

[9] = target: T1, Claudin 18.2 (CLDN18.2), expressed on …; test: FACS, CHOS-CLDN18.2 cells, 5 µg/ml
Experimental: as §1

[10] = target: T1, Claudin 18.2 (CLDN18.2), expressed on …; test: FACS, CHOS-CLDN18.2 cells, 0.078 µg/ml; remark: listed apart in the source
Experimental: as §1

[11] = target: T1, Claudin 18.2 (CLDN18.2), expressed on …; test: FACS, CHOS-CLDN18.2 cells, 0.313 µg/ml
Experimental: as §1

[12] = target: T1, Claudin 18.2 (CLDN18.2), expressed on …; test: FACS, CHOS-CLDN18.2 cells, 5 µg/ml; remark: listed apart in the source
Experimental: as §1

[13] = target: T1, Claudin 18.2 (CLDN18.2), expressed on …; test: FACS, CHOS-CLDN18.2 cells, 0.020 µg/ml
Experimental: as §1

[14] = target: T1, Claudin 18.2 (CLDN18.2), expressed on …; test: FACS, CHOS-CLDN18.2 cells, 0.313 µg/ml; remark: listed apart in the source
Experimental: as §1

[15] = target: T1, Claudin 18.2 (CLDN18.2), expressed on …; test: FACS, CHOS-CLDN18.2 cells, 0 µg/ml (background); remark: listed apart in the source
Experimental: as §1

[16] = target: T1, Claudin 18.2 (CLDN18.2), expressed on …; test: FACS, CHOS-CLDN18.2 cells, 0.005 µg/ml; remark: listed apart in the source
Experimental: as §1

[17] = target: T1, Claudin 18.2 (CLDN18.2), expressed on …; test: FACS, CHOS-CLDN18.2 cells, 0.005 µg/ml; remark: listed apart in the source
Experimental: as §1

[18] = target: T1, Claudin 18.2 (CLDN18.2), expressed on …; test: FACS, CHOS-CLDN18.2 cells
Experimental: as §1

FACS reading [1]: 2830 | FACS reading [2]: 18200 | FACS reading [3]: 18200 | MFI [4]: 145000 | FACS reading [5]: 2830 | FACS reading [6]: 732 | FACS reading [7]: 18200 | FACS reading [8]: 63700 | FACS reading [9]: 105000 | FACS reading [10]: 18200 | FACS reading [11]: 51000 | FACS reading [12]: 105000 | FACS reading [13]: 6950 | FACS reading [14]: 51000 | FACS reading [15]: 732 | FACS reading [16]: 2830 | FACS reading [17]: 2830 | EC50 [18]: 0.27 µg/mL | max [18]: 88600
B1: QP024025 (antibody, human IgG1, V domains shown)
VH: QVQLQQPGAELVRPGASVKLSCKASGYTFTSYWINWVKQRPGQGLEWIGNIYPSDSYTNYNQKFKDKATLTVDKSSSTAYMQLSSPTSEDSAVYYCTRSWRGNSFDYWGQGTTLTVSS
VL: DIVMTQSPSSLTVTAGEKVTMSCKSSQSLLNSGNQKNYLTWYQQKPGQPPKLLIYWASTRESGVPDRFTGSGSGTDFTLTISSVQAEDLAVYYCQNDYSYPFTFGSGTKLEIK
notes: also called IMAB362; 175D10(IMAB362)
